Assay results published in US20250145705A1 (SHANDONG SIMCERE BIOPHARMACEUTICAL, published 2025).
Where “and” joins values, the source holds several entries; their conditions need not be identical. Equal values may be shown once.

Experiments:
[1] = biological target: monkey GPRC5D (monkey (cyno)); assay: FACS, HEK293T-cynoGPRC5D high pool
human GPRC5D [2] = biological target: T1, human GPRC5D (human, UniProt Q9NZD1 1-345); assay: FACS, CHOK1-hGPRC5D high pool
T1 construct: the cell line is named under assay; also called hGPRC5D; G protein coupled receptor C5 family subtype D

[3] = biological target: monkey GPRC5D (monkey (cyno)); assay: FACS, CHOK1-cynoGPRC5D high pool
human GPRC5D [4] = biological target: T1, human GPRC5D; assay: FACS, HEK293T-hGPRC5D high pool
[5] = biological target: hGPRC5D-LVP protein (human) (UniProt Q9NZD1); assay: competitive ELISA, competitor Biotin-5F11; antibody at 1.85 nM
[6] = biological target: hGPRC5D-LVP protein (human) (UniProt Q9NZD1); assay: competitive ELISA, competitor Biotin-5F11; antibody at 5.56 nM
[7] = biological target: hGPRC5D-LVP protein (human) (UniProt Q9NZD1); assay: competitive ELISA, competitor Biotin-5F11; antibody at 50.00 nM
human GPRC5D [8] = biological target: T1, human GPRC5D; assay: FACS, MolP-8 cells
[9] = biological target: hGPRC5D-LVP protein (human) (UniProt Q9NZD1); assay: competitive ELISA, competitor Biotin-5F11; antibody at 0 nM
[10] = biological target: hGPRC5D-LVP protein (human) (UniProt Q9NZD1); assay: competitive ELISA, competitor Biotin-5F11; antibody at 0.62 nM
[11] = biological target: hGPRC5D-LVP protein (human) (UniProt Q9NZD1); assay: competitive ELISA, competitor Biotin-5F11; antibody at 0.21 nM
human GPRC5D [12] = biological target: T1, human GPRC5D; assay: FACS, RPMI-8226 cells
Protocol: (§1) The desired cells were scale-up cultured in a T-75 cell culture flask to the logarithmic growth phase. NCI-H929, MolP-8 and RPMI-8226 cells were collected and washed with PBS buffer 2 times. After counting the cells, the cell pellet was resuspended with [PBS+2% (w/v) BSA] blocking solution to 2×10⁶ cells/ml, and added to a 96-well FACS reaction plate at 50 μl/well, and then the chimeric antibody test sample was added at 50 μl/well, and incubated on ice for 1 h. […] The obtained mixture was centrifuged and washed 3 times with a PBS buffer, and FACS (FACS CantoII, purchased from BD Company) was used for detection and result analysis. Data analysis was performed by software (Flowjo) to obtain the mean fluorescence intensity (MFI) of the cells. Then a software (GraphPad Prism8) was used for analysis, the analysis results are shown in Table 9 and FIGS. 9A-9C, 10A-10C and 11A-11C.

human GPRC5D [13] = biological target: T1, human GPRC5D; assay: FACS, NCI-H929 cells
Protocol: as §1

[14] = biological target: hGPRC5D-LVP protein (human) (UniProt Q9NZD1); assay: competitive ELISA, competitor Biotin-5F11; antibody at 16.67 nM
[15] = biological target: hGPRC5D-LVP protein (human) (UniProt Q9NZD1); assay: competitive ELISA, competitor Biotin-5F11; antibody at 0.07 nM

T1 sequence (Q9NZD1 whole entry): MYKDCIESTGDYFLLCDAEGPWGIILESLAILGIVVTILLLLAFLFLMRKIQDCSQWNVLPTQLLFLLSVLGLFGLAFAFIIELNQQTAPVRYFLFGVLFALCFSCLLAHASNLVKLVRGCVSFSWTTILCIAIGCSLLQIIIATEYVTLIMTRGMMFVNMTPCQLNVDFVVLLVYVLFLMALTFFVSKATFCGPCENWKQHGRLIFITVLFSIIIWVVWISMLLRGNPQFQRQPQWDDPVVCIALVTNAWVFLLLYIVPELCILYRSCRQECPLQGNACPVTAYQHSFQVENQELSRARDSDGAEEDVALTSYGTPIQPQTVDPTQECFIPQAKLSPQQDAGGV
Chain of hGPRC5D-LVP protein (human) (Q9NZD1 whole entry): as above
Chain of monkey GPRC5D (monkey (cyno)) (Q9NZD1 other isoform, or with tags, fused parts or gaps): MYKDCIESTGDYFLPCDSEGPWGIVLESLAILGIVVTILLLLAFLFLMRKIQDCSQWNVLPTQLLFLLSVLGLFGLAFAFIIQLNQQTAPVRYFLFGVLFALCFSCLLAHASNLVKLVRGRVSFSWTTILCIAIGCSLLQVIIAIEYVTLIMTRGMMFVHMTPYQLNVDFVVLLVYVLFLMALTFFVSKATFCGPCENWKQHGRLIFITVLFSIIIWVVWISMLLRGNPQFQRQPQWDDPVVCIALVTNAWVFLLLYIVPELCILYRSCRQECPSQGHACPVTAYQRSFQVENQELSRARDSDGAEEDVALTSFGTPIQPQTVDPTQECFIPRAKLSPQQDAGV

**Q.** With IgG subtype control (antibody) as the molecule, how does the Mean fluorescence density [1] read?
**A.** Its Mean fluorescence density is 18.2.

**Q.** And the Mean fluorescence intensity (human GPRC5D [2])?
**A.** The Mean fluorescence intensity was 56.4.

**Q.** What about the Mean fluorescence density [3] of the same molecule?
**A.** Its Mean fluorescence density is 52.9.

**Q.** And the Cell mean fluorescence density (human GPRC5D [4])?
**A.** The Cell mean fluorescence density was 18.9.

**Q.** Which results are given for anti-hel-hIgG1 (antibody)?
**A.** OD450 [5]: 1.16 and 0.7 and 0.89; OD450 [6]: 1.14 and 0.69 and 0.87; OD450 [7]: 1.16 and 0.63 and 0.89; Maximum mean fluorescence intensity (human GPRC5D [8]): 81 and 103 and 90; OD450 [9]: 1.22 and 0.57 and 0.94; OD450 [10]: 1.2 and 0.67 and 0.88; OD450 [11]: 1.27 and 0.68 and 0.87; Maximum mean fluorescence intensity (human GPRC5D [12]): 108 and 106 and 85; Maximum mean fluorescence intensity (human GPRC5D [13]): 85 and 74; OD450 [14]: 1.15 and 0.65 and 0.9; OD450 [15]: 1.24 and 0.62 and 0.92

B1: 5F11-hIgG1 (antibody, V domains shown)
VH: EVQLVESGGGLVQPGRSLKLSCAASGFSFSNYGMAWVRQAATKGLEWVASISTGGGNTYYRDSVKGRFIVSRDNAKNTQYLQMDSLRSEDTATYYCTRHDRGGLYWGQGVMVTVSS
VL: DIVMTQAPLSVSVTPGESASISCRSSKSLLHSNGITYVYWYFQKPGKSPQVLIYRMSNLASGVPDRFSGSGSETDFTLKISRVEAEDVGIYHCGQLLENPYTFGAGTELELKR
notes: Control antibody; VH and VL from WO 2019154890 A1 recombined into human IgG1 CH and CL expression vectors; also called h5F11-hIgG1; positive control antibody 5F11
**Q.** What does the source list for B1?
**A.** EC50 (human GPRC5D [12]): 3.17 nM and 2.86 nM and 6.48 nM; EC50 (human GPRC5D [13]): 1.25 nM and 3.5 nM and 1.97 nM
